Reference: publication PMC2828957 (Molecular Biology of the Cell, 2010)
Blank lines part the entries; values can stand above or below the binder they belong to.

T1: GST-Sec63C (complete C-terminal domain of human Sec63, residues 210-760, N-terminal GST) (human, UniProt Q9UGP8 210-760)
T1 sequence (looked up): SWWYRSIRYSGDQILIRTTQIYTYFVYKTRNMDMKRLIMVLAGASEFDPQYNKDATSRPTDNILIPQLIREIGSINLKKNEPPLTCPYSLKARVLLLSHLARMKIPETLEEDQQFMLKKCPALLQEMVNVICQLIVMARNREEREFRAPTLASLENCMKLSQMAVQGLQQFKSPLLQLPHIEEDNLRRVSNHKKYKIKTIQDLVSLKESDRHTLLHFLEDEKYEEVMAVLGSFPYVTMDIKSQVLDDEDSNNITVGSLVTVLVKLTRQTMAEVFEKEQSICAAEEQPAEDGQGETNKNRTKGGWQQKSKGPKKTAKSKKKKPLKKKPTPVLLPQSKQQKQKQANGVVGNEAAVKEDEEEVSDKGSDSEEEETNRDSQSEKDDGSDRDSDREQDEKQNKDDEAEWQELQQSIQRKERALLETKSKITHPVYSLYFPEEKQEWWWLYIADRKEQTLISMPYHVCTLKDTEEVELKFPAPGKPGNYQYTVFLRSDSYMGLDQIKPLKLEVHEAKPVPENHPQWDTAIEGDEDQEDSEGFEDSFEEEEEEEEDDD

B1: human Sec62N (N-terminal domain of human Sec62, residues 1-195, C-terminal hexa-histidine tag) (domain or fragment, UniProt Q99442 1-195, looked up)
chain: MAERRRHKKRIQEVGEPSKEEKAVAKYLRFNCPTKSTNMMGHRVDYFIASKAVDCLLDSKWAKAKKGEEALFTTRESVVDYCNRLLKKQFFHRALKVMKMKYDKDIKKEKDKGKAESGKEEDKKSKKENIKDEKTKKEKEKKKDGEKEESKKEETPGTPKKKETKKKFKLEPHDDQVFLDGNEVYVWIYDPVHFK
B2: Sec62N-ΔN10-ΔC40 (human Sec62 residues 11-155, C-terminal hexa-histidine tag) (domain or fragment, UniProt Q99442 11-155, looked up)
chain: IQEVGEPSKEEKAVAKYLRFNCPTKSTNMMGHRVDYFIASKAVDCLLDSKWAKAKKGEEALFTTRESVVDYCNRLLKKQFFHRALKVMKMKYDKDIKKEKDKGKAESGKEEDKKSKKENIKDEKTKKEKEKKKDGEKEESKKEET

Legend:
[1] = target: T1, GST-Sec63C (complete C-terminal domain …); assay: SPR
[2] = target: B2; assay: pull-down
[3] = target: B1; assay: pull-down
[4] = target: T1, GST-Sec63C (complete C-terminal domain …); assay: pull-down

Binder: B1
- Kd [1]: 4.78 nM

- binding result [2]: binds
- binding result [3]: binds
Binder: EGDEDQEDSEGFEDSFEEEEEEEEDDD (domain or fragment, UniProt Q9UGP8 734-760, looked up) [GST-Sec63C26 (C-terminal 26 amino acid residues of human Sec63, residues 734-760, N-terminal GST)]

Binder: B2
- binding result [4]: binds
